Data on 15 molecules can be found in patent US20220162261A1 (published 2022).

For orientation: IC50 means the concentration that inhibits the measured activity by half. A low value points to higher potency.

In experiment [1] the target is T1, human α4β7 integrin on cells (human, UniProt P13612 34-1032; P26010 20-798).
T1 construct: whole, on cells; also called α4β7 cell (Hu); RPMI8866 cells
The experiment in a line: PBMC memory T cell adhesion.

The target in experiment [2] is T1, human α4β7 integrin on cells. The experiment in a line: RPMI8866 cell adhesion to MAdCAM-1.
For experiment [3], the target named is T2, α4β1 (R&D Systems #5668-A4) (UniProt P13612 34-970; P05556 21-728, limits assumed).
T2 construct: bought; also called soluble α4β1
Description: competition ELISA vs VCAM-1. (In general: In an ELISA, binding on a coated surface is turned into a signal by an enzyme label.)

In experiment [4] the target is T3, human α4β1 integrin on cells (human, UniProt P13612 34-1032; P05556 21-798).
T3 construct: whole, on cells; also called α4β1 cell; Jurkat cells
The experiment in a line: Jurkat cell adhesion to VCAM-1.

Experiment [5] addresses T4, rh integrin α4β7 (R&D Systems #5397-A30) (human, UniProt P13612 34-970; P26010 20-723).
T4 construct: bought; coated on a nickel coated plate; also called immobilized α4β7; immobilized α4β7 integrin protein
The experiment in a line: competition ELISA vs MAdCAM-1.

For experiment [6], the target named is T4, rh integrin α4β7 (R&D Systems #5397-A30). The experiment in a line: competition ELISA vs MAdCAM-1. This is another data set of the same source.
Experiment [7] has as its target T2, α4β1 (R&D Systems #5668-A4). The experiment in a line: competition ELISA vs VCAM-1. This is another data set of the same source.
Experiment [8] has as its target T1, human α4β7 integrin on cells. The experiment in a line: RPMI8866 cell adhesion to MAdCAM-1. This is another data set of the same source.
The target of experiment [9] is T5, mouse α4β7 integrin on TK1 cells (mouse, UniProt Q00651 41-1039; P26011 20-806).
T5 construct: whole, on cells; also called α4β7 cell (Mu); Cell Adhesion α4β7 Mouse
T5 sequence (Q00651 41-1039, chain 1 of 2): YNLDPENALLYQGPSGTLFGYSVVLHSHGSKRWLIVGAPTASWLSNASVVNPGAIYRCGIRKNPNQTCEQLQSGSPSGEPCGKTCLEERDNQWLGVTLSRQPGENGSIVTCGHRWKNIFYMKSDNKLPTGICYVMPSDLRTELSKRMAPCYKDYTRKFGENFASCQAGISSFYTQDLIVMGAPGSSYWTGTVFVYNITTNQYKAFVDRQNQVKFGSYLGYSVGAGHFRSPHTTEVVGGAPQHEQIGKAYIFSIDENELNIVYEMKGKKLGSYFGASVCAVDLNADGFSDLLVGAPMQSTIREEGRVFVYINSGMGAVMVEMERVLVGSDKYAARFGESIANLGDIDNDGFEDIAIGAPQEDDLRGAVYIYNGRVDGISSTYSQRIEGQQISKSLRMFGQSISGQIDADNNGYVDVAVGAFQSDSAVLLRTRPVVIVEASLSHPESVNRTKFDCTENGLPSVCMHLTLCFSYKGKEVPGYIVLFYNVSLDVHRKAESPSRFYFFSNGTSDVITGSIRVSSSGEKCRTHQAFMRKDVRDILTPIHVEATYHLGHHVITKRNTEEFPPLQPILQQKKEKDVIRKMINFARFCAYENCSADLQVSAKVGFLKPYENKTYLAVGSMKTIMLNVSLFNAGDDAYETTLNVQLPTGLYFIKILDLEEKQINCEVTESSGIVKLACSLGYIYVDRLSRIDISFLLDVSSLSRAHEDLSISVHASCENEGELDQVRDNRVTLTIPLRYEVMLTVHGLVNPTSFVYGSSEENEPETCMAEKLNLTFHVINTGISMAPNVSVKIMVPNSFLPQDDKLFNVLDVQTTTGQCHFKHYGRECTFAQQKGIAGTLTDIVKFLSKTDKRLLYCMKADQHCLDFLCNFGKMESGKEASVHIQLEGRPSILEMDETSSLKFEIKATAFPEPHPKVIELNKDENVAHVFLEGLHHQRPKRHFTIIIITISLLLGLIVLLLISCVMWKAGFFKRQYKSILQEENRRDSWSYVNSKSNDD
T5 sequence (P26011 20-806, chain 2 of 2): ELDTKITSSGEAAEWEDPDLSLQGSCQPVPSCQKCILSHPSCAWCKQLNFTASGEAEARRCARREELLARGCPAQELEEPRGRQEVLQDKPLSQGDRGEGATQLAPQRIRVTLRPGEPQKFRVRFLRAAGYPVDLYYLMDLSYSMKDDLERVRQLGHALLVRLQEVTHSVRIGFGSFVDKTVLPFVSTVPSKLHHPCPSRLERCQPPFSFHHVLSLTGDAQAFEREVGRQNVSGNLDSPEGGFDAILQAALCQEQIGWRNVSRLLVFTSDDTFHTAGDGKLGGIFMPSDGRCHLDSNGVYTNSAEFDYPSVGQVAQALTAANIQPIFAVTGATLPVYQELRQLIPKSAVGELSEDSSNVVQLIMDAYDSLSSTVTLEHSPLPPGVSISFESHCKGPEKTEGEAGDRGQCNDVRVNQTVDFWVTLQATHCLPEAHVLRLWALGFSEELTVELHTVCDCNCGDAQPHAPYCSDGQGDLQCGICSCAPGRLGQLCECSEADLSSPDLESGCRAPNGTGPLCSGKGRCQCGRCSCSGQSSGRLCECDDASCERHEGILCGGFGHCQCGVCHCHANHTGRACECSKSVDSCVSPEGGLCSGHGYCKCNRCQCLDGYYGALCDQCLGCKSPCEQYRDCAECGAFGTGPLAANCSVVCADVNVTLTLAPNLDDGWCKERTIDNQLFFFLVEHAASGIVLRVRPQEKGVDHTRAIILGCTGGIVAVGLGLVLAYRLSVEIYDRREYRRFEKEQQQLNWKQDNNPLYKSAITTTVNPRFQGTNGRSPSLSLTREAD
Description: TK1 cell adhesion to MAdCAM-1.

Experiment [10] addresses T5, mouse α4β7 integrin on TK1 cells. The experiment in a line: TK1 cell adhesion to MAdCAM-1. This is another data set of the same source.
Experiment [11] deals with T1, human α4β7 integrin on cells. The experiment in a line: PBMC memory T cell adhesion. The source holds these as a separate data set.

Like-named read-outs stand apart in the source and are kept apart here. Bridge positions count the residues as written; N and C are the ends. Square brackets hold non-standard residues; d marks the D form. Ends that are not written are not given here. Phe(4-tBu) = CC(C)(C)c1ccc(C[C@H](N)C(=O)O)cc1; NMeR = CN[C@@H](CCCNC(=N)N)C(=O)O; β3hE = N[C@@H](CCC(=O)O)CC(=O)O; NMeK = CN[C@@H](CCCCN)C(=O)O; Pen = CC(C)(S)[C@H](N)C(=O)O; dNMeK = CN[C@H](CCCCN)C(=O)O; βAla = NCCC(=O)O

On to Ac-C[NMeR]SDTL[Pen]W[dK]-NH2 (disulfide 1-7; also: homodimer via DIG linker on D-Lys9 side chains, also called peptide 204) [SEQ ID NO: 204], for which the 50% inhibitory concentration (IC50) was 1280 nM in experiment [1]; 22 nM in [2]; 463 nM in experiment [3]; above 100000 nM in [4]; 2 nM in experiment [5].

B1: SEQ ID NO: 22 (peptide)
peptide: Ac-[Pen][NMeR]SDTL[Pen]YE[dK]-NH2
modifications: disulfide 1-7; not fully specified (residue 10); printed as (Ac Pen N-Me-R S D T L Pen Y E k NH2)2 DIG, disulfide Pen-Pen; also: dimer, two subunits joined by DIG linker
Take B1: the IC50 in [6] is at most 10 nM; in experiment [7] it was above 100 nM; in [8], at most 10 nM.

B2: SEQ ID NO: 215 (peptide)
peptide: Ac-[Pen][NMeR]SDTL[Pen]WE[NMeK]-NH2
modifications: disulfide 1-7; not fully specified; printed as [Ac-Pen-(N-Me-Arg)-Ser-Asp-Thr-Leu-Pen-Trp-Glu-(N-Me-Lys)-NH2]2-DIG; also: homodimer: two identical subunits joined by DIG linker at the Lys10 side chains, each subunit has its own Pen1-Pen7 disulfide
notes: also called peptide 215
For B2, the IC50 in [1] was determined as 16.5 nM; in [2] it was 3 nM; in experiment [9], 0.9 nM; in [3], 270 nM; in experiment [5] it was 2.2 nM.

B3: SEQ ID NO: 214 (peptide)
peptide: Ac-[Pen][NMeR]SDTL[Pen]WE[dNMeK]-NH2
modifications: disulfide 1-7; not fully specified (residue 10); printed as (Ac Pen N-Me-R S D T L Pen W E N-Me-k NH2)2 DIG, disulfide Pen-Pen; also: dimer, two subunits joined by DIG linker
notes: also called peptide 214
In the case of B3, the IC50 in experiment [1] is 24.5 nM; in experiment [2], 2.5 nM; in experiment [9], 1.1 nM; in experiment [3], 436 nM; in [5] it was 4.1 nM.

B4: SEQ ID NO: 54 (peptide)
peptide: [βAla][Pen][NMeR]SDTL[Pen]WE-NH2
modifications: disulfide 2-8; not fully specified (N-terminus); printed as DIG (NH2 Beta-Ala Pen N-Me-R S D T L Pen W E NH2)2, disulfide Pen-Pen; also: homodimer: two subunits linked by DIG via N-terminal Beta-Ala amine
notes: linker printed at the N-terminus
Turning to B4, the results for the IC50 in experiment [7] and in experiment [8] were above 100 nM and above 25 nM, respectively.
In the case of Ac-[Pen][NMeR]SDTL[Pen]W[dE][dK]-NH2 (disulfide 1-7; also: dimer, two subunits joined by DIG linker, also called peptide 211) [SEQ ID NO: 211], the IC50 in experiment [2] is 22 nM; in experiment [9] it was 7.3 nM; in [3], 302 nM; in experiment [4], above 100000 nM; in experiment [5], 3 nM.

B5: SEQ ID NO: 149 (peptide)
peptide: Ac-[Pen][NMeR]SDTL[Pen][Phe(4-tBu)][β3hE][NMeK]-NH2
modifications: disulfide 1-7; not fully specified (residue 10); printed as (Ac Pen N-Me-R S D T L Pen F(4-tBu) b-H-E N-Me-K NH2)2 DIG, disulfide Pen-Pen; also: homodimer (…)2 DIG via Lys10 NZ
In the case of B5, the IC50 is at most 10 nM in experiment [6]; at most 10 nM in experiment [10]; above 500 nM in [7]; at most 10 nM in experiment [11]; at most 10 nM in [8].

B6: SEQ ID NO: 153 (peptide)
peptide: Ac-[Pen][NMeR]SDTL[Pen][Phe(4-tBu)][β3hE][dK]-NH2
modifications: disulfide 1-7
SMILES: CC(=O)N[C@@H]1C(=O)N(C)[C@@H](CCCNC(=N)N)C(=O)N[C@@H](CO)C(=O)N[C@@H](CC(=O)O)C(=O)N[C@@H]([C@@H](C)O)C(=O)N[C@@H](CC(C)C)C(=O)N[C@H](C(=O)N[C@@H](Cc2ccc(C(C)(C)C)cc2)C(=O)N[C@@H](CCC(=O)O)CC(=O)N[C@H](CCCCN)C(N)=O)C(C)(C)SSC1(C)C
Consider B6, for which the IC50 is above 10 nM in experiment [6], above 10 nM in experiment [10], above 1000 nM in experiment [7] and above 10 nM in experiment [8].

B7: SEQ ID NO: 218 (peptide)
peptide: Ac-[Pen][NMeR]SDTL[Pen][Phe(4-tBu)][β3hE][dK]-NH2
modifications: disulfide 1-7; not fully specified (residue 10); printed as (Ac Pen N-Me-R S D T L Pen F(4-tBu) b-H-E k NH2)2 DIG, disulfide Pen-Pen; also: dimer, two subunits joined by DIG linker
notes: also called peptide 218
On to B7, for which the IC50 in experiment [1] is 2 nM; in [2], 0.78 nM; in [9] it was 0.5 nM; in experiment [3] it was 490 nM; in experiment [4], above 100000 nM; in experiment [5], 2.8 nM.
As to Ac-C[NMeR]SDTL[Pen][dK]-NH2 (disulfide 1-7; also: homodimer via IDA linker on D-Lys8 side chains, also called peptide 203) [SEQ ID NO: 203], the IC50 in experiment [2] was 200 nM; in experiment [9] it was 633 nM; in experiment [3] it was 700 nM; in experiment [4] it was above 100000 nM; in [5] it was 7.5 nM.

B8: SEQ ID NO: 141 (peptide)
peptide: Ac-[Pen][NMeR]SDTL[Pen]W[β3hE][NMeK]-NH2
modifications: disulfide 1-7; not fully specified (residue 10); printed as (Ac Pen N-Me-R S D T L Pen W b-H-E N-Me-K NH2)2 DIG, disulfide Pen-Pen; also: homodimer (…)2 DIG via Lys10 NZ
As to B8, the IC50 in experiment [6] was at most 10 nM; in experiment [7] it was above 500 nM; in [8] it was at most 10 nM.

B9: SEQ ID NO: 217 (peptide)
peptide: Ac-[Pen][NMeR]SDTL[Pen]WE[dK]-NH2
modifications: disulfide 1-7; not fully specified (residue 10); printed as (Ac Pen N-Me-R S D T L Pen W E k NH2)2 DIG, disulfide Pen-Pen; also: dimer, two subunits joined by DIG linker
notes: also called peptide 217
As for B9, the IC50 in experiment [2] is 3.2 nM; in experiment [9], 1.2 nM; in experiment [3] it was 315 nM; in experiment [4] it was above 100000 nM; in experiment [5], 2.3 nM.

B10: SEQ ID NO: 213 (peptide)
peptide: Ac-[Pen][NMeR]SDTL[Pen]W[β3hE][dK]-NH2
modifications: disulfide 1-7; not fully specified (residue 10); printed as (Ac Pen N-Me-R S D T L Pen W b-h-E k NH2)2 DIG, disulfide Pen-Pen; also: dimer, two subunits joined by DIG linker
notes: also called peptide 213; Peptide XX
As for B10, the IC50 is 12 nM in experiment [2]; 4.2 nM in experiment [9]; 539 nM in [3]; above 100000 nM in [4]; 4.7 nM in [5].
Turning to XRSDTLXWE (Ac Pen N-Me-R S D T L Pen W b-H-E OH; disulfide Pen-Pen) [SEQ ID NO: 146], the values for the IC50 in [10], in experiment [7] and in experiment [8] were above 50 nM, above 1000 nM and above 50 nM, respectively.

B11: SEQ ID NO: 152 (peptide)
peptide: Ac-[Pen][NMeR]SDTL[Pen][Phe(4-tBu)][β3hE]-OH
modifications: disulfide 1-7
SMILES: CC(=O)N[C@@H]1C(=O)N(C)[C@@H](CCCNC(=N)N)C(=O)N[C@@H](CO)C(=O)N[C@@H](CC(=O)O)C(=O)N[C@@H]([C@@H](C)O)C(=O)N[C@@H](CC(C)C)C(=O)N[C@H](C(=O)N[C@@H](Cc2ccc(C(C)(C)C)cc2)C(=O)N[C@@H](CCC(=O)O)CC(=O)O)C(C)(C)SSC1(C)C
For B11, the IC50 in [6] was at most 10 nM; in experiment [10] it was at most 10 nM; in experiment [7], above 100 nM; in experiment [11], above 25 nM; in experiment [8], at most 10 nM.
